Patent publication US9808503B2, “Allergen peptide fragments and use thereof for treatment of birch pollen allergies” (ANERGIS S.A., priority 2003, dated 2017)

Legend:
IgE = test: In vitro IgE binding, dot blot analysis; set-up: species or system human; conditions: 1 μg spotted; control and peptide groups; order: OPF90-134, then OPF1-60
Method: Immunoblotting and dot blot analysis: Anti-BV or -PLA2 immunoblots were processed as described in Kettner et al., Clin. Experiment. Allergy 29:394-401, 1999. For dot blot analysis, 1 μg of whole BV, PLA2, OPFs or human albumin was diluted ¼ in DMSO, spotted on PVDF membranes and dried for 30 min. at 37° C. After blocking in non-fat milk 5%, further steps were performed as described in Kettner et al., Clin. Experiment. Allergy 29:394-401 1999. Dot densities were analyzed by scanning densitometry using an Advanced American Biotechnology scanner, Fullerton, Calif.

[1] = system: bee venom (BV) hypersensitive patients; test: Intradermal (ID) skin tests; format: in vivo, human; conditions: for immediate allergic reaction to intradermal injection: representative patient of peptide group (FIG. 5), 1 μg/ml each OPF, 0.01 μg/ml native PLA2
Method: Skin testing: ID tests with BV, PLA2 and peptides were performed as described in Müller et al., Allergy 48(14):37-46, 1993. Concentrations tested ranged from 10^−3 μg/ml to 1 μg/ml (10-fold dilution series). […] The 0.1 μg/ml concentration was defined as the end-point concentration (EPC), as higher concentrations of BV and PLA2 may induce non specific toxic reactions. See Müller et al., J. Allergy Clin. Immunol. 96:395-402, 1995.

Substance	IgE binding to the peptide (order among the three OPFs) (IgE)	immediate allergic reaction to intradermal injection [1]	ID tests ([1]; day 0, all patients in OPF and control group)
OPF47-99: PLA2 fragment amino acid sequence (53 aa), internal overlapping peptide fragment of Apis mellifera PLA2 (KHGLTNTASHTRLSCDCDDKFYDCLKNSADTISSYFVGKMYFNLIDTKCYKLE)	undetectable	absence of immediate allergic reaction	–
OPF1-60: PLA2 fragment amino acid sequence (60 aa), N-terminal overlapping peptide fragment of Apis mellifera PLA2 (IIYPGTLWCGHGNKSSGPNELGRFKHTDACCRTHDMCPDVMSAGESKHGLTNTASHTRLS)	–	absence of immediate allergic reaction	–
OPF90-134: PLA2 fragment amino acid sequence (45 aa), C-terminal overlapping peptide fragment of Apis mellifera PLA2 (LIDTKCYKLEHPVTGCGERTEGRCLHYTVDKSKPKVYQWFDLRKY)	higher level	absence of immediate allergic reaction	–
phospholipase A2 [native PLA2, reference compound]	–	positive	positive
